In publication PMC4941522:

Columns and labels:
[1] = test system: Sso10a2 (Sulfolobus solfataricus); experiment: EMSA; conditions: TPM buffer conditions; data not shown; EMSA: TPM buffer II (composition not in the material), 69 nM DNA, 10 min, ~23 °C, 1% agarose 0.5x TBE; TPM: 100 mM or 20 mM NaCl
[2] = test system: Sso10a1 (Sulfolobus solfataricus); experiment: EMSA; conditions: TPM buffer conditions; data not shown; EMSA: TPM buffer II (composition not in the material), 69 nM DNA, 10 min, ~23 °C, 1% agarose 0.5x TBE; TPM: 100 mM or 20 mM NaCl

**Q.** With 685 bp DNA substrate (TPM/EMSA) as the substance, how does the Kd [1] read?
**A.** 1 nM

**Q.** And the Kd [2]?
**A.** 1 nM
